From patent US20230118307A1, “THERAPEUTIC USE OF LONG-ACTING CONJUGATE OF TRIPLE AGONIST HAVING ACTIVITIES TO ALL OF GLUCAGON/GLP-1/GIP RECEPTORS FOR LUNG DISEASE” (HANMI PHARM. CO., LTD., priority 2020, published 2023)
Positions of bridges follow the written chain, without caps; N, C: chain ends. Non-standard residues stand in square brackets, D forms with d. No end group written: not given here. *: point of attachment. Acetyl(2-(4-imidazolyl)) = O=C(Cc1c[nH]cn1)*; Aib = CC(C)(N)C(=O)O

T1: human GIP receptor (human, UniProt P48546 22-466)
T1 sequence (looked up): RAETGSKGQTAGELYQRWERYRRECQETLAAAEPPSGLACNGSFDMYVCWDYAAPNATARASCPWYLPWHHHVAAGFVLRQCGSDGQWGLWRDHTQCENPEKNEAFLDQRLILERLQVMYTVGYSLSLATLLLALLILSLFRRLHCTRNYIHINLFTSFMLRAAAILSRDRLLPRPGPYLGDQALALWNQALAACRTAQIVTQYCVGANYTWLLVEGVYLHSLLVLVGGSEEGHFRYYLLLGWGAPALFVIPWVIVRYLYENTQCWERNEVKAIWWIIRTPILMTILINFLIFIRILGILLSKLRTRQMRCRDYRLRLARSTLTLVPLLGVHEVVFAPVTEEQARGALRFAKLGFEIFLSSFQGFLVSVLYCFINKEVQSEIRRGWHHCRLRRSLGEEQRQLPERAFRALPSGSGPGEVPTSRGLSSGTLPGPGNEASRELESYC

B1: triple agonist of SEQ ID NO: 23 (peptide)
peptide: Y[Aib]QGTFTSDYSKYLDECRAKEFVQWLLAQKGKKNDWKHNIT
modifications: bridge 16-20
B2: triple agonist of SEQ ID NO: 25 (peptide)
peptide: H[Aib]QGTFTSDCSKYLDERAAQDFVQWLLDGGPSSGAPPPS
B3: triple agonist of SEQ ID NO: 32 (peptide)
peptide: H[Aib]QGTFTSDYSKYLDEKACKDFVQWLLDGGPSSGAPPPS
modifications: bridge 16-20; also: ring type not given here
B4: triple agonist of SEQ ID NO: 27 (peptide)
peptide: H[Aib]QGTFTSDYSKYLDERACQDFVQWLLDQGGPSSGAPPPS
B5: triple agonist of SEQ ID NO: 28 (peptide)
peptide: H[Aib]QGTFTSDYSKYLDEKRAQEFVCWLLAQKGKKNDWKHNIT
B6: triple agonist of SEQ ID NO: 21 (peptide)
peptide: Y[Aib]QGTFTSDYSKYLDECRAKEFVQWLLDHHPSSGQPPPS
modifications: bridge 16-20
B7: triple agonist of SEQ ID NO: 3 (peptide)
peptide: H[Aib]QGTFTSDVSSYLLGQAAKQFIAWLVKGGGPSSGAPPPSC
B8: triple agonist of SEQ ID NO: 33 (peptide)
peptide: H[Aib]QGTFTSDYSIAMDEIHQKDFVNWLLAQKC
modifications: bridge 16-20; also: ring type not given here
B9: triple agonist of SEQ ID NO: 30 (peptide)
peptide: H[Aib]QGTFTSDYSKYLDEKAQKEFVQWLLDTC
modifications: bridge 16-20
B10: triple agonist of SEQ ID NO: 20 (peptide)
peptide: [Acetyl(2-(4-imidazolyl))]GQGTFTSDLSIQYEEEAQQDFVEWLKDTGPSSGAPPPSHG
B11: triple agonist of SEQ ID NO: 31 (peptide)
peptide: H[Aib]QGTFTSDYSKYLDEKACKEFVQWLLAQ
modifications: bridge 16-20
B12: triple agonist of SEQ ID NO: 22 (peptide)
peptide: Y[Aib]QGTFTSDYSKCLDEKRAKEFVQWLLDHHPSSGQPPPS
modifications: bridge 16-20
B13: triple agonist of SEQ ID NO: 26 (peptide)
peptide: H[Aib]QGTFTSDCSKYLDSRAAQDFVQWLLDGGPSSGAPPPS
B14: triple agonist of SEQ ID NO: 29 (peptide)
peptide: H[Aib]QGTFTSDYSKYLDEKAAKEFVQWLLNTC
modifications: bridge 16-20
B15: triple agonist of SEQ ID NO: 24 (peptide)
peptide: Y[Aib]QGTFTSDYSKYLDECRAKEFVQWLKNGGPSSGAPPPS
modifications: bridge 16-20
B16: triple agonist of SEQ ID NO: 19 (peptide)
peptide: [Acetyl(2-(4-imidazolyl))]GQGTFTSDLSIQYDSEHQRDFIEWLKDTGPSSGAPPPSHG

Experiments:
[1] = tested on: IPF mice (C57BL/6 mice treated with BLM); experiment: Lung fibrosis in bleomycin (BLM) mice, Masson's trichrome staining; format: in vivo; settings: BLM 1.5 U/head; 2 weeks; conjugate 3.9 nmol/kg Q2D subcutaneous; pirfenidone 300 mg/kg QD oral; ambroxol 45 mg/kg BID peritoneal; FIG. 5
Procedure: In order to confirm the in vivo efficacy of the long-acting conjugate of the triple agonist prepared in the above Examples for improving pulmonary fibrosis, particularly idiopathic pulmonary fibrosis (IPF), which is a representative pulmonary fibrosis, bleomycin (BLM) mice were used. It is known that, when bleomycin is administered intratracheally, the epithelial-mesenchymal transition occurs by damaging DNA of alveolar epithelial cells, which induces idiopathic fibrosis. In addition, it is known that when the BLM treatment dose is increased above a certain level, the survival rate of the mice is reduced due to severe lung damage caused by idiopathic fibrosis. […]
IPF mice prepared by treating C57BL/6 mice (ORIENT Bio, Busan, Korea) with BLM at 1.5 U/head were divided into an excipient control group, a long-acting conjugate of triple agonist administration group (3.9 nmol/kg, Q2D, subcutaneous), a pirfenidone administration group (300 mg/kg, QD, oral), and an ambroxol administration group (45 mg/kg, BID, peritoneal), repeated administration was performed for 2 weeks. After 2 weeks of repeated administration, lung tissue of each mouse was taken by autopsy, and the degree of fibrosis in the lung tissue was evaluated by Masson's trichrome staining. Statistical treatment evaluated the efficacy of the long-acting conjugate of the triple agonist using one-way ANOVA (*-***p<0.05-0.001).

[2] = target: human GLP-1 receptor (human, UniProt P43220 24-463); experiment: cell-based or functional assay
[3] = target: human GCG receptor (human, UniProt P47871 26-477); experiment: cell-based or functional assay
Sequence of human GCG receptor (P47871 26-477): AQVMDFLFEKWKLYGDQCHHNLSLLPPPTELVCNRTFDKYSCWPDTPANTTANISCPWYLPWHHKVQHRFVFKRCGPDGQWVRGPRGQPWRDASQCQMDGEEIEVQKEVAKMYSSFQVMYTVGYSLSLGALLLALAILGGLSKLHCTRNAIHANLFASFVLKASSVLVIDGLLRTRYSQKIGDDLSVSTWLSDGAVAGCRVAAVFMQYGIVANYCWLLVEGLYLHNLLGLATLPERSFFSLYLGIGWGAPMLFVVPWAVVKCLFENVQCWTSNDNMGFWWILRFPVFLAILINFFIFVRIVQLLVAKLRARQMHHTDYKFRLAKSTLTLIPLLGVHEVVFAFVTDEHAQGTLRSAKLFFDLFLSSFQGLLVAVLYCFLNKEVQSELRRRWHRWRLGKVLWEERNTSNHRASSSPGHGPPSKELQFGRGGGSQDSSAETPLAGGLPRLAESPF

[4] = target: T1, human GIP receptor; experiment: cell-based or functional assay

| Molecule | positive area of Masson's trichrome staining in the lung tissue (degree of fibrosis) [1] | In vitro Activity Compared to Native Peptide (%) vs. GLP-1 [2] [%] | In vitro Activity Compared to Native Peptide (%) vs. Glucagon [3] [%] | In vitro Activity Compared to Native Peptide (%) vs. GIP [4] [%] |
| --- | --- | --- | --- | --- |
| Nc1c(Br)cc(Br)cc1CN[C@H]1CC[C@H](O)CC1 [ambroxol, reference compound] | same level of efficacy as the long-acting conjugate of the triple agonist | – | – | – |
| B1 | – | 4.01 | 9.3 | < 0.1 |
| B2 | – | 82.6 | 0.1 | < 0.1 |
| B3 | – | 151 | 1.7 | 8.8 |
| B4 | – | 83.1 | 0.8 | 0.9 |
| B5 | – | 17.2 | 1.6 | < 0.1 |
| B6 | – | 17.8 | 267 | 22.7 |
| B7 | – | 1.8 | < 0.1 | < 0.1 |
| B8 | – | 24.5 | < 0.1 | 10.4 |
| B9 | – | 142 | 0.7 | 0.8 |
| B10 | – | < 0.1 | < 0.1 | < 0.1 |
| B11 | – | 135 | 2.2 | 2.4 |
| B12 | – | 20.1 | 140 | 59.7 |
| B13 | – | 64.5 | 0.2 | < 0.1 |
| B14 | – | 38.5 | 6 | < 0.1 |
| B15 | – | 41.2 | 9.3 | < 0.1 |
| B16 | – | < 0.1 | < 0.1 | < 0.1 |
